# Data published in patent US20190233542A1 (WUXI BIOLOGICS IRELAND, published 2019).
# B1: 40409 (hIgG2) (antibody, V domains shown)
# VH: QLNLQQSGPGLVNPSQTLSLTCAISGGSVSSNSAAWNWIRQSPSRGLEWLGRIYSRSKWYHDYAVSVKGRITINPDTSKNQFFLQLNSVTPEDTAVYYCARDWETIIWGDDGPNYYNYGLDVWGQGTTVTVSS
# VL: DIQMTQSPSSLSASVGDRVTITCRASQGIRNDLGWYQQKPGKAPKRLIYGASSLQSGVPSRFSGSGSGTEFTLTISSLQPEDFATYYCLQHNNYLWTFGQGTKVEIK
# B2: 15.14.2-uAb-IgG4L (antibody, V domains shown)
# VH: EVQMLESGGGLVQPGGSLRLSCAVSGFTFSRFAMSWVRQAPGKGLDWVSSISDNAGRTYFADSVKGRFTISRDNSKNTLYLQMNSLRADDTAVYYCAKLSNWGPYGMDVWGQGTTVTVSS
# VL: QSALTQPPSASGSPGQSVTISCTGTSSDVGYYNYVSWYQQHPGEAPKLMIYEVNKRPSGVPDRFSGSKSGSTASLTVSGLQAVDEADYYCSSYAGSKNFVVFGGGTKLTVL
# notes: human IgG4 constant region, lambda light chain
# B3: 17.72.3-uAb2-IgG4K (antibody, V domains shown)
# VH: QVQLQESGPGLVKPSGTLSLTCAVSGGSIRSYNWWSWVRQPPGEGLEWIGEIHHSGTTNYNPSLKSRVTISVDKSKNQFSLKLSSVTAADTAVYYCARDYSGSYFDYWGQGTLVTVSS
# VL: EVVLTQSPATLSLSPGERATLSCRTSQSLSSYVAWSQQKPGQAPRLLIYDASKRATGVPARFSGSGSGTDFTLTISNLEPEDFAVYYCHQRGNWMSSFGQGTKLEIK
# notes: human IgG4 constant region, kappa light chain
# B4: 19.3.8-uAb1-IgG4L (antibody, V domains shown)
# VH: QVQLVQSGAEVKKPGASVKVSCKASGYTFTGYYINWVRQAPGQGLEWMGRINPNSGGTNYAQKFQGRVTMTRDTSINTAYMELSRLRSDDTAVYFCASWEGTVTTWDFYYYYGMDVWGQGTTVTVSS
# VL: QSALTQPASVSGSPGQSITISCTGTSSDVDTYNYVSWYQHHPGKAPKLIIFDVSNRPSGVSNRFSGSKSGNTASLTISGLQAEDEADYYCSSYTSSSTLVVFGGGTKLTVL
# notes: as for B2
# B5: 18.156.8 (hIgG4) (antibody, V domains shown)
# VH: QVQLVESGGGVVQPGRSLRLSCAASGFTFSSYGMHWVRQAPGKGLEWMAVIWYDGTNKYYADSVKGRFTISRDNSKNTVYLQMNSLRAEDTAVYYCAREKGLDWGQGTLVTVSS
# VL: not shown
# notes: as for B3
# B6: 40409 (hIgG4) (antibody, V domains shown)
# VH: B1 VH
# VL: B1 VL
# notes: human IgG4 constant region
# Legend:
# [1] = target: T1, human PCSK9 (Proprotein Convertase Subtilisin/Kexin type 9) (human, UniProt Q8NBP7 31-692, biotin label in the ELISA formats (site not stated)); assay: cell-based or functional assay
# [2] = target: mutant human PCSK9 (D374Y) (human, UniProt Q8NBP7 31-692); assay: cell-based or functional assay
# human PCSK9-mFc-biotin [3] = target: T2, human PCSK9-mFc-biotin (human, UniProt Q8NBP7 31-692, biotin label (site not stated)); assay: competitive ELISA, blocking of PCSK9 binding to LDL-R
# T2 construct: not shown: murine Fc (mFc) fused at the C-terminus
# [4] = target: T1, human PCSK9 (Proprotein Convertase …); assay: binding ELISA on human PCSK9
# [5] = target: T1, human PCSK9 (Proprotein Convertase …); assay: SPR, Biacore T200, antibody captured, PCSK9 as analyte
# Procedure: (§1) Antibody binding affinity to human and rhesus PCSK9 was detected by SPR assay using Biacore T200. Each antibody was captured on a Protein A or or anti-human IgG Fc antibody immobilized CM5 sensor chip (GE). Human or rhesus PCSK9 at different concentrations were injected over the sensor chip at a flow rate of 30 μL/min for an association phase of 180 s, followed by 1200 s dissociation. The chip was regenerated by 2 M MgCl₂ after each binding cycle.
# (§2) The sensorgrams for blank surface and buffer channel were subtracted from the test sensorgrams. The experimental data was fitted by 1:1 model using Langmiur analysis. Molecular weight of 85 KDa was used to calculate the molar concentration of analyte.
# (§3) Kinetic affinities of antibody leads were measured by SPR assay.
# [6] = target: T1, human PCSK9 (Proprotein Convertase …); assay: cell-based or functional assay; remark: listed apart in the source
# rhesus PCSK9 = target: T3, rhesus PCSK9 (rhesus, UniProt A8T666 31-692, limits assumed); assay: SPR, Biacore T200, antibody captured, monkey PCSK9 as analyte
# T3 construct: A rhesus PCSK9-His from Sino Biological is named only for the ELISA of Section 4.3.2; also called monkey PCSK9; rhesus PCSK9-His
# Procedure: as §1, §2, §3
# [7] = target: T1, human PCSK9 (Proprotein Convertase …); assay: ELISA on streptavidin-captured PCSK9-biotin
# Procedure: Binding assay by ELISA: Plates (Nunc) were coated with Streptavidin at 1 μg/ml overnight at 4° C. After blocking and washing, 250 ng/ml PCSK9-biotin was added and incubated for 1 h. Then hybridoma supernatants were transferred to the plates and incubate at room temperature for 1 h. The plates were then washed and subsequently incubated with secondary antibody goat anti rat IgG1 HRP (Bethyl) and goat anti rat IgG2b HRP (Bethyl) for 45 min. After washing, TMB substrate was added and the interaction was stopped by 2M HCl. The absorbance at 450 nm was read using a microplate reader (Molecular Device).
# The activities of reference antibodies 12H11.1.uIgG4K and 24B9.1.uIgG4L binding to human PCSK9 were confirmed by ELISA (FIG. 29), according to the method described in Section 2.4 Hybridoma screening of EXAMPLE 2.
# [8] = target: T1, human PCSK9 (Proprotein Convertase …); assay: ELISA on biotin-labeled PCSK9 captured on streptavidin, antibody diluted from human serum after 0 to 14 days at 37 C
# [9] = target: T1, human PCSK9 (Proprotein Convertase …); assay: SPR, Biacore T200, antibody captured, PCSK9 as analyte; remark: listed apart in the source
# Procedure: as §1, §2
# human PCSK9-mFc-biotin [10] = target: T2, human PCSK9-mFc-biotin; assay: competitive ELISA, blocking of PCSK9-mFc-biotin binding to coated LDL-R
# Procedure: Blocking assay by ELISA: Plates (Nunc) were coated with LDL-R overnight at 4° C. Hybridoma supernatants were mixed with 250 ng/ml PCSK9-mFc-biotin and incubated at 4° C. overnight. After blocking and washing, the mixture were added to the plates and incubated for 1 h. The plates were then washed and subsequently incubated with streptavidin- HRP. After washing, TMB substrate was added and the interaction was stopped by 2M HCl. The absorbance at 450 nm was read using a microplate reader (Molecular Device).
# The activities of reference antibodies 12H11.1.uIgG4K and 24B9.1.uIgG4L to blocking the binding of PCSK9 to LDLR were evaluated by competitive ELISA (FIG. 30) according to the methods described in Section 2.4 Hybridoma screening of EXAMPLE 2.
# [11] = target: T1, human PCSK9 (Proprotein Convertase …); assay: cell-based or functional assay; remark: listed apart in the source
# [12] = target: T1, human PCSK9 (Proprotein Convertase …); assay: SPR
# [13] = target: T1, human PCSK9 (Proprotein Convertase …); assay: SPR; remark: listed apart in the source
Binder,"IC50 of LDL-uptake restoration, HepG2 cells, PCSK9 (WT) [1] [nM]","IC50 of LDL-uptake restoration, Huh-7 cells, PCSK9 (WT) [1] [nM]","IC50 of LDL-uptake restoration, HepG2 cells, PCSK9 (D374Y) [2] [nM]","IC50 of LDL-uptake restoration, Huh-7 cells, PCSK9 (D374Y) [2] [nM]",IC50 (human PCSK9-mFc-biotin [3]) [nM],EC50 [4] [nM],Kd [5] [nM],koff [5] [s⁻¹],kon [5] [M⁻¹ s⁻¹],"IC50, LDL-uptake assay in HepG2 [6] [nM]",Kd (rhesus PCSK9) [nM],koff (rhesus PCSK9) [s⁻¹],kon (rhesus PCSK9) [M⁻¹ s⁻¹],also measured
B1,38.3,63.7,2.3,2.7,,,,,,,,,,
B2,,,,,1.12,0.031,0.25,8.09e-05,324000,80,0.687,0.00031,452000,
B3,,,,,1.67,0.036,3.42,4.68e-05,13700,106,20.5,0.00226,110000,
B4,,,,,2,0.13,17.5,0.000271,15400,115,7.16,0.00441,616000,
B5,65.1,76.1,10.8,5.2,1.22,0.028,0.589,0.000146,248000,,0.0371,3.19e-05,861000,"EC50 [7]: 0.034 nM; EC50 (read off the curve) [8]: ~0.1 nM; Kd [9]: 0.0688 nM; koff [9]: 4.47e-05 s⁻¹; kon [9]: 649000 M⁻¹ s⁻¹; IC50 (human PCSK9-mFc-biotin [10]): 0.97 nM; EC50, LDL-uptake assay in HepG2 [11]: 156 nM"
B6,,,,,1.75,0.024,0.0523,9.05e-05,1.73e+06,,0.413,0.000939,2.27e+06,Kd [12]: 0.0523 nM; koff [12]: 9.05e-05 s⁻¹; kon [12]: 1.73e+06 M⁻¹ s⁻¹; fold further affinity improvement (over B4G2) [13]: 2 fold; fold higher affinity compared to BMK.115 [13]: 2 fold
